34 molecules from PMC12416549 (2024) can be followed below.

The target in this assay is T1, TNFR1 (Homo sapiens, UniProt P19438).
T1 chain: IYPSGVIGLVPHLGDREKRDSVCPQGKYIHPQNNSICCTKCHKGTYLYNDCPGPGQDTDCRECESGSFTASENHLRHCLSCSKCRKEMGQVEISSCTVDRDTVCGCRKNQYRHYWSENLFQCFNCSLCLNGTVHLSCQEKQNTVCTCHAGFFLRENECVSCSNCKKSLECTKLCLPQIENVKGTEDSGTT
Put plainly: yeast display SC50.

B1: E84T (designed binder)
chain: MTLQELLREEALRRAEAEAFRYALELLAEKFPEQKEYLLDLAEEIESQIRSLSGVDVEDVRKFLDKEWAWVKELLAEHPAELATVEAARAARLAELRAEVEAKVAA
Turning to B1, the “apparent Kd (screen)” value is 0.49 nM.

B2: V104W (designed binder)
chain: MTLQELLREEALRRAEAEAFRYALELLAEKFPEQKEYLLDLAEEIESQIRSLSGVDVEDVRKFLDKEWAWVKELLAEHPAELAEVEAARAARLAELRAEVEAKWAA
Turning to B2, the “apparent Kd (screen)” value amounted to 0.869 nM.

B3: A76L (designed binder)
chain: MTLQELLREEALRRAEAEAFRYALELLAEKFPEQKEYLLDLAEEIESQIRSLSGVDVEDVRKFLDKEWAWVKELLLEHPAELAEVEAARAARLAELRAEVEAKVAA
Turning to B3, the “apparent Kd (screen)” value came out at 0.49 nM.

B4: T2R (designed binder)
chain: MRLQELLREEALRRAEAEAFRYALELLAEKFPEQKEYLLDLAEEIESQIRSLSGVDVEDVRKFLDKEWAWVKELLAEHPAELAEVEAARAARLAELRAEVEAKVAA
For B4, the “apparent Kd (screen)” value stood at 0.956 nM.

B5: A102C (designed binder)
chain: MTLQELLREEALRRAEAEAFRYALELLAEKFPEQKEYLLDLAEEIESQIRSLSGVDVEDVRKFLDKEWAWVKELLAEHPAELAEVEAARAARLAELRAEVECKVAA
As for B5, the “apparent Kd (screen)” value is 0.539 nM.

B6: V55W (designed binder)
chain: MTLQELLREEALRRAEAEAFRYALELLAEKFPEQKEYLLDLAEEIESQIRSLSGWDVEDVRKFLDKEWAWVKELLAEHPAELAEVEAARAARLAELRAEVEAKVAA
Consider B6, for which the “apparent Kd (screen)” value was found to be 1.16 nM.

B7: L93M (designed binder)
chain: MTLQELLREEALRRAEAEAFRYALELLAEKFPEQKEYLLDLAEEIESQIRSLSGVDVEDVRKFLDKEWAWVKELLAEHPAELAEVEAARAARMAELRAEVEAKVAA
As for B7, the “apparent Kd (screen)” value stood at 0.539 nM.

B8: D56R (designed binder)
chain: MTLQELLREEALRRAEAEAFRYALELLAEKFPEQKEYLLDLAEEIESQIRSLSGVRVEDVRKFLDKEWAWVKELLAEHPAELAEVEAARAARLAELRAEVEAKVAA
Regarding B8, the “apparent Kd (screen)” value amounted to 2.25 nM.

B9: K72V (designed binder)
chain: MTLQELLREEALRRAEAEAFRYALELLAEKFPEQKEYLLDLAEEIESQIRSLSGVDVEDVRKFLDKEWAWVVELLAEHPAELAEVEAARAARLAELRAEVEAKVAA
B9: the “apparent Kd (screen)” value turned out to be 0.593 nM.

B10: A83L (designed binder)
chain: MTLQELLREEALRRAEAEAFRYALELLAEKFPEQKEYLLDLAEEIESQIRSLSGVDVEDVRKFLDKEWAWVKELLAEHPAELLEVEAARAARLAELRAEVEAKVAA
Take B10: the “apparent Kd (screen)” value was found to be 0.446 nM.

B11: F31T (designed binder)
chain: MTLQELLREEALRRAEAEAFRYALELLAEKTPEQKEYLLDLAEEIESQIRSLSGVDVEDVRKFLDKEWAWVKELLAEHPAELAEVEAARAARLAELRAEVEAKVAA
Take B11: the “apparent Kd (screen)” value amounted to 0.593 nM.

B12: L3C (designed binder)
chain: MTCQELLREEALRRAEAEAFRYALELLAEKFPEQKEYLLDLAEEIESQIRSLSGVDVEDVRKFLDKEWAWVKELLAEHPAELAEVEAARAARLAELRAEVEAKVAA
Consider B12, for which the “apparent Kd (screen)” value worked out at 12.5 nM.

B13: A91M (designed binder)
chain: MTLQELLREEALRRAEAEAFRYALELLAEKFPEQKEYLLDLAEEIESQIRSLSGVDVEDVRKFLDKEWAWVKELLAEHPAELAEVEAARAMRLAELRAEVEAKVAA
Regarding B13, the “apparent Kd (screen)” value was found to be 0.869 nM.

B14: A83W (designed binder)
chain: MTLQELLREEALRRAEAEAFRYALELLAEKFPEQKEYLLDLAEEIESQIRSLSGVDVEDVRKFLDKEWAWVKELLAEHPAELWEVEAARAARLAELRAEVEAKVAA
Consider B14, for which the “apparent Kd (screen)” value came to 0.49 nM.

B15: Y22W (designed binder)
chain: MTLQELLREEALRRAEAEAFRWALELLAEKFPEQKEYLLDLAEEIESQIRSLSGVDVEDVRKFLDKEWAWVKELLAEHPAELAEVEAARAARLAELRAEVEAKVAA
With B15, the “apparent Kd (screen)” value was determined as 0.49 nM.

B16: A76S (designed binder)
chain: MTLQELLREEALRRAEAEAFRYALELLAEKFPEQKEYLLDLAEEIESQIRSLSGVDVEDVRKFLDKEWAWVKELLSEHPAELAEVEAARAARLAELRAEVEAKVAA
Regarding B16, the “apparent Kd (screen)” value worked out at 0.49 nM.

B17: L96H (designed binder)
chain: MTLQELLREEALRRAEAEAFRYALELLAEKFPEQKEYLLDLAEEIESQIRSLSGVDVEDVRKFLDKEWAWVKELLAEHPAELAEVEAARAARLAEHRAEVEAKVAA
Consider B17, for which the “apparent Kd (screen)” value is 0.49 nM.

B18: V57M (designed binder)
chain: MTLQELLREEALRRAEAEAFRYALELLAEKFPEQKEYLLDLAEEIESQIRSLSGVDMEDVRKFLDKEWAWVKELLAEHPAELAEVEAARAARLAELRAEVEAKVAA
Consider B18, for which the “apparent Kd (screen)” value stood at 2.48 nM.

B19: V57G (designed binder)
chain: MTLQELLREEALRRAEAEAFRYALELLAEKFPEQKEYLLDLAEEIESQIRSLSGVDGEDVRKFLDKEWAWVKELLAEHPAELAEVEAARAARLAELRAEVEAKVAA
Regarding B19, the “apparent Kd (screen)” value was determined as 1.86 nM.

B20: Q34G (designed binder)
chain: MTLQELLREEALRRAEAEAFRYALELLAEKFPEGKEYLLDLAEEIESQIRSLSGVDVEDVRKFLDKEWAWVKELLAEHPAELAEVEAARAARLAELRAEVEAKVAA
As for B20, the “apparent Kd (screen)” value is 0.593 nM.

B21: E77L (designed binder)
chain: MTLQELLREEALRRAEAEAFRYALELLAEKFPEQKEYLLDLAEEIESQIRSLSGVDVEDVRKFLDKEWAWVKELLALHPAELAEVEAARAARLAELRAEVEAKVAA
With B21, the “apparent Kd (screen)” value came out at 0.446 nM.

B22: E46W (designed binder)
chain: MTLQELLREEALRRAEAEAFRYALELLAEKFPEQKEYLLDLAEEIWSQIRSLSGVDVEDVRKFLDKEWAWVKELLAEHPAELAEVEAARAARLAELRAEVEAKVAA
As to B22, the “apparent Kd (screen)” value amounted to 0.368 nM.

B23: I45Y (designed binder)
chain: MTLQELLREEALRRAEAEAFRYALELLAEKFPEQKEYLLDLAEEYESQIRSLSGVDVEDVRKFLDKEWAWVKELLAEHPAELAEVEAARAARLAELRAEVEAKVAA
On to B23, for which the “apparent Kd (screen)” value was 1.86 nM.

B24: E29M (designed binder)
chain: MTLQELLREEALRRAEAEAFRYALELLAMKFPEQKEYLLDLAEEIESQIRSLSGVDVEDVRKFLDKEWAWVKELLAEHPAELAEVEAARAARLAELRAEVEAKVAA
As for B24, the “apparent Kd (screen)” value is 0.539 nM.

B25: R13T (designed binder)
chain: MTLQELLREEALTRAEAEAFRYALELLAEKFPEQKEYLLDLAEEIESQIRSLSGVDVEDVRKFLDKEWAWVKELLAEHPAELAEVEAARAARLAELRAEVEAKVAA
For the molecule B25, the “apparent Kd (screen)” value worked out at 0.335 nM.

B26: R50W (designed binder)
chain: MTLQELLREEALRRAEAEAFRYALELLAEKFPEQKEYLLDLAEEIESQIWSLSGVDVEDVRKFLDKEWAWVKELLAEHPAELAEVEAARAARLAELRAEVEAKVAA
For B26, the “apparent Kd (screen)” value was found to be 2.73 nM.

B27: M1V (designed binder)
chain: VTLQELLREEALRRAEAEAFRYALELLAEKFPEQKEYLLDLAEEIESQIRSLSGVDVEDVRKFLDKEWAWVKELLAEHPAELAEVEAARAARLAELRAEVEAKVAA
With B27, the “apparent Kd (screen)” value turned out to be 0.539 nM.

B28: E95M (designed binder)
chain: MTLQELLREEALRRAEAEAFRYALELLAEKFPEQKEYLLDLAEEIESQIRSLSGVDVEDVRKFLDKEWAWVKELLAEHPAELAEVEAARAARLAMLRAEVEAKVAA
Regarding B28, the “apparent Kd (screen)” value came to 0.446 nM.

B29: E101V (designed binder)
chain: MTLQELLREEALRRAEAEAFRYALELLAEKFPEQKEYLLDLAEEIESQIRSLSGVDVEDVRKFLDKEWAWVKELLAEHPAELAEVEAARAARLAELRAEVVAKVAA
For B29, the “apparent Kd (screen)” value was 0.539 nM.

B30: E18M (designed binder)
chain: MTLQELLREEALRRAEAMAFRYALELLAEKFPEQKEYLLDLAEEIESQIRSLSGVDVEDVRKFLDKEWAWVKELLAEHPAELAEVEAARAARLAELRAEVEAKVAA
As for B30, the “apparent Kd (screen)” value turned out to be 0.49 nM.

B31: H78D (designed binder)
chain: MTLQELLREEALRRAEAEAFRYALELLAEKFPEQKEYLLDLAEEIESQIRSLSGVDVEDVRKFLDKEWAWVKELLAEDPAELAEVEAARAARLAELRAEVEAKVAA
As to B31, the “apparent Kd (screen)” value worked out at 0.593 nM.

B32: E101T (designed binder)
chain: MTLQELLREEALRRAEAEAFRYALELLAEKFPEQKEYLLDLAEEIESQIRSLSGVDVEDVRKFLDKEWAWVKELLAEHPAELAEVEAARAARLAELRAEVTAKVAA
With B32, the “apparent Kd (screen)” value stood at 1.05 nM.

B33: L6R (designed binder)
chain: MTLQERLREEALRRAEAEAFRYALELLAEKFPEQKEYLLDLAEEIESQIRSLSGVDVEDVRKFLDKEWAWVKELLAEHPAELAEVEAARAARLAELRAEVEAKVAA
With B33, the “apparent Kd (screen)” value was 12.5 nM.

B34: A102R (designed binder)
chain: MTLQELLREEALRRAEAEAFRYALELLAEKFPEQKEYLLDLAEEIESQIRSLSGVDVEDVRKFLDKEWAWVKELLAEHPAELAEVEAARAARLAELRAEVERKVAA
In the case of B34, the “apparent Kd (screen)” value was determined as 0.446 nM.
